First the molecules themselves.
B1: Ubiquitin-conjugating enzyme E2 T (Homo sapiens), Q9NPD8 (parent)
chain: MQRASRLKRELHMLATEPPPGITCWQDKDQMDDLRAQILGGANTPYEKGVFKLEVIIPERYPFEPPQIRFLTPIYHPNIDSAGRICLDVLKLPPKGAWRPSLNIATVLTSIQLLMSEPNPDDPLMADISSEFKYNKPAFLKNARQWTEKHARQKQKADEEEMLDNLPEAGDSRVHNSTQKRKASQLVGIEKKFHPDV
partner: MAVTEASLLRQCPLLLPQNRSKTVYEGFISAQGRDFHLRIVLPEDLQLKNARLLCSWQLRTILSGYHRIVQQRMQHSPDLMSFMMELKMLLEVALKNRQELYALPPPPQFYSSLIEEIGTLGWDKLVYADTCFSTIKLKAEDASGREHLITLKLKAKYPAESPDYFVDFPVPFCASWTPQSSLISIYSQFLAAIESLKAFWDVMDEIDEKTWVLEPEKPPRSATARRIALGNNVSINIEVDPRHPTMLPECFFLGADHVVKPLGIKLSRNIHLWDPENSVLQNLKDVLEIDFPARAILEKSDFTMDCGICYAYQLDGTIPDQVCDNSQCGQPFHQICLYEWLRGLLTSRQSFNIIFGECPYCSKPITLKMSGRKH
B2: E3 ubiquitin-protein ligase FANCL (Homo sapiens), Q9NW38-1 (parent)
chain: B1 partner

In one experiment the parent is B1. The following applies: with FANCL.
Consider R60E, for which the “effect of a mutation on the interaction” value is given as “disrupting interaction strength”.

The next experiment covers variants of B2. The following applies: with ube2t_human UBE2T.
Take I309A: the “effect of a mutation on the interaction” value is reported as “disrupting interaction strength”.
Same read-out and setting: the same measure for Y311A: “disrupting interaction strength”.
Same read-out and setting: the same measure for W341A: “disrupting interaction strength”.

Source of the values: IntAct's records for PubMed 24389026.
